Assay [1] concerns the target purified tubulin dimer. The assay is described as follows: SPR; VASH1 L226A/C169S. (Surface plasmon resonance follows binding to a sensor surface in real time, without labels.)
The target of assay [2] is purified tubulin dimer. The experiment in a line: SPR.

B1: VASH1-SVBP complex, VASH1 L226A (complex)
chain 1: not shown
chain 2: MDPPARKEKTKVKESVSRVEKAKQKSAQQELKQRQRAEIYALNRVMTELEQQQFDEFCKQMQPPGE
By Kd is commonly meant a measure of binding affinity in units of concentration. The molecule B1 showed a Kd with purified tubulin dimer [1] of 2100 nM.

B2: VASH1^44–315-SVBP^1–66 heterodimer (complex)
chain 1: not shown
chain 2: B1 chain 2
On to B2, for which the Kd with purified tubulin dimer [2] came out at 320 nM.

(Values after paper PMC6937246 (2019).)
